Each block holds one binder with its values, some of them ahead of it.
Biological target: T1, Myostatin (UniProt O14793 267-375, limits assumed)
T1 sequence (looked up): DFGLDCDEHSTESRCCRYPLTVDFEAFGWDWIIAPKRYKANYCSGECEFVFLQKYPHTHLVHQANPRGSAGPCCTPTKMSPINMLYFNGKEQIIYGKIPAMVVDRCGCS
Assay: cell-based or functional assay

IC50 of inhibition of myostatin dependent SMAD2/3 activation (luciferase reporter, HEK293, 0.1 nM myostatin): 68 pM
fold difference of IC50 against hNOPE (1-620) ECD-FC: 2.5 fold
fold difference of IC50 against hNOPE (1-957) ECD-FC: 7 fold
B1: mNOPE (1-955) ECD-FC (Fc fusion, not shown: a dimerising Fc or GST)
chain: ELPLPQETTVKLSCDEGPLQVILGPEQAVVLDCTLGATAAGPPTRVTWSKDGDTVLEHENLHLLPNGSLWLSSPLEQEDSDDEEALRIWKVTEGSYSCLAHSPLGVVASQVAVVKLATLEDFSLHPESQIVEENGTARFECHTKGLPAPIITWEKDQVTVPEESRLITLPNGVLQILDVQDSDAGSYRCVATNSARQRFSQEASLTVALRGSLEATRGQDVVIVAAPENTTVVSGQSVVMECVASADPTPFVSWVRQDGKPISTDVIVLGRTNLLIASAQPRHSGVYVCRANKPRTRDFATAAAELRVLAAPAISQAPEALSRTRASTARFVCRASGEPRPALHWLHDGIPLRPNGRVKVQGGGGSLVITQIGLQDAGYYQCVAENSAGTACAAAPLAVVVREGLPSAPTRVTATPLSSSSVLVAWERPELHSEQIIGFSLHYQKARGVDNVEYQFAVNNDTTELQVRDLEPNTDYEFYVVAYSQLGASRTSSPALVHTLDDVPSAAPQLTLSSPNPSDIRVAWLPLPSSLSNGQVLKYKIEYGLGKEDQVFSTEVPGNETQLTLNSLQPNKVYRVRISAGTGAGYGVPSQWMQHRTPGVHNQSHVPFAPAELKVRAKMESLVVSWQPPPHPTQISGYKLYWREVGTEEEADGDRPPGGRGDQAWDVGPVRLKKKVKQYELTQLVPGRLYEVKLVAFNKHEDGYAAVWKGKTEKAPTPDLPIQRGPPLPPAHVHAESNSSTSIWLRWKKPDFTTVKIVNYTVRFGPWGLRNASLVTYYTSSGEDILIGGLKPFTKYEFAVQSHGVDMDGPFGSVVERSTLPDRPSTPPSDLRLSPLTPSTVRLHWCPPTEPNGEIVEYLILYSNNHTQPEHQWTLLTTEGNIFSAEVHGLESDTRYFFKMGARTEVGPGPFSRLQDVITLQKTFSDSLDVHAV

IC50 of inhibition of myostatin dependent SMAD2/3 activation (luciferase reporter, HEK293, 0.1 nM myostatin): 500 pM
B2: hNOPE (1-957) ECD-FC (Fc fusion, not shown: a dimerising Fc or GST)
chain: ELLLPQETTVELSCGVGPLQVILGPEQAAVLNCSLGAAAAGPPTRVTWSKDGDTLLEHDHLHLLPNGSLWLSQPLAPNGSDESVPEAVGVIEGNYSCLAHGPLGVLASQTAVVKLATLADFSLHPESQTVEENGTARFECHIEGLPAPIITWEKDQVTLPEEPRLIVLPNGVLQILDVQESDAGPYRCVATNSARQHFSQEALLSVAHRGSLASTRGQDVVIVAAPENTTVVSGQSVVMECVASADPTPFVSWVRQDGKPISTDVIVLGRTNLLIANAQPWHSGVYVCRANKPRTRDFATAAAELRVLAAPAITQAPEALSRTRASTARFVCRASGEPRPALRWLHNGAPLRPNGRVKVQGGGGSLVITQIGLQDAGYYQCVAENSAGMACAAASLAVVVREGLPSAPTRVTATPLSSSAVLVAWERPEMHSEQIIGFSLHYQKARGMDNVEYQFAVNNDTTELQVRDLEPNTDYEFYVVAYSQLGASRTSTPALVHTLDDVPSAAPQLSLSSPNPSDIRVAWLPLPPSLSNGQVVKYKIEYGLGKEDQIFSTEVRGNETQLMLNSLQPNKVYRVRISAGTAAGFGAPSQWMHHRTPSMHNQSHVPFAPAELKVQAKMESLVVSWQPPPHPTQISGYKLYWREVGAEEEANGDRLPGGRGDQAWDVGPVRLKKKVKQYELTQLVPGRLYEVKLVAFNKHEDGYAAVWKGKTEKAPAPDMPIQRGPPLPPAHVHAESNSSTSIWLRWKKPDFTTVKIVNYTVRFSPWGLRNASLVTYYTSSGEDILIGGLKPFTKYEFAVQSHGVDMDGPFGSVVERSTLPDRPSTPPSDLRLSPLTPSTVRLHWCPPTEPNGEIVEYLILYSSNHTQPEHQWTLLTTQGNIFSAEVHGLESDTRYFFKMGARTEVGPGPFSRLQDVITLQEKLSDSLDMHSVT
